Measured values: patent publication US7314716B2, “Gustducin γ subunit materials and methods” (Mount Sinai School of Medicine, priority 1999, dated 2008)

B1: Gγ5: G protein γ5 subunit (protein)
chain: SGSSSVAAMKKVVQQLRLEAGLNRVKVSQAAADLKQFCLQNAQHDPLLTGVSSSTNPFRPQKVC
B2: Gustducin γ subunit: γ subunit of the taste cell G protein gustducin, 67 amino acids, designated Gγ13 (protein, listed as Mus musculus)
chain: MEEWDVPQMKKEVESLKYQLAFKREMSSKTIPELLKWIEDGIPKDPFLNPDLMKNNPWVEKAKCTIL
modifications: ends and bridges not checked
notes: γ subunit of the taste cell G protein gustducin, 67 amino acids, designated Gγ13
B3: cone γ8 subunit: the cone transducin α subunit partner (protein)
chain: MAQDLSEKDLLKMEVEQLKKEVKNTRIPISKAGKEIKEYVEAQAGNDPFLKGIPEDKNPFKEKGGCLIS
modifications: ends and bridges not checked
notes: the cone transducin α subunit partner
B4: Gγ1: G protein γ subunit which interacts with the rod transducin α subunit (protein)
chain: PVINIEDLTEKDKLKMEVDQLKKEVTLERMLVSKCCEEFRDYVEERSGEDPLVKGIPEDKNPFKELKGGC

How the values were obtained:
gustducin α subunit = target: T1, gustducin α subunit (Rattus norvegicus, UniProt P29348); assay: Trypsin protection assay of G protein α and γ subunit interaction; format: binding; details: in vitro translated γ and α subunits mixed 3:1, without β subunit
T1 construct: made in house; host or cells: cell-free in vitro transcription/translation (Promega TNT system)
T1 sequence (P29348 2-354 limits assumed): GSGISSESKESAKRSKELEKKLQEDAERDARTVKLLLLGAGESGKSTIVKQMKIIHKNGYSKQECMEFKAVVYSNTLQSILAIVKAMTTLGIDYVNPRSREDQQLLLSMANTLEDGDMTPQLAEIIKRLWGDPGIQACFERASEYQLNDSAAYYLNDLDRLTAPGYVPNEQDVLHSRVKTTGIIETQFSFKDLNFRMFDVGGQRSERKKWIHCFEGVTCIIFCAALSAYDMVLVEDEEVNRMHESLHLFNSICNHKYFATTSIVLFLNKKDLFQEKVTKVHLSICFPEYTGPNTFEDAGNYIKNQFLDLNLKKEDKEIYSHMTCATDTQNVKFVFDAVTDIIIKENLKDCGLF
Text: The interaction was confirmed using a trypsin protection assay that detects the direct interaction of G protein α and γ subunits. The assay is based on the fact that γ subunits, in the absence of β subunits, can interact directly with α subunits, and that this interaction apparently dictates which βγ dimer associates with which α subunit. See Rahmatullah & Robishaw, J. Biol. Chem., 269: 3574–3580 (1994).
To monitor G protein α and γ subunit interactions, gustducin γ and α subunit DNAs were transcribed and translated in vitro using the Promega TNT system, mixed in a 3:1 ratio, and incubated for 15 minutes at 30° C. in buffer G [15 mM Na-HEPES pH 8.0, 250 mM NaCl, 0.6 mM EDTA, 0.6 mM DTT, 5 mM MgCl2, 0.1 mM GDP and 0.3% polyoxyethylene 10-lauryl ether (LPX)]. The assay was initiated by adding Tosyl-L-phenylalanine chloromethyl ketone (TPCK) treated-trypsin (0.5 μg), incubated for 1 hour at 30° C., and terminated with 3 μg soybean trypsin inhibitor (SBTI) (15 min, at 30° C.). The samples were analyzed on 12% SDS-PAGE, gels were fixed, enhanced with En^3Hance (NEN), dried and exposed to X-ray film.
Other Gγ subunits were also tested in the assay.

β1 subunit = target: T2, β1 subunit (Homo sapiens, UniProt P62873); assay: Trypsin assay of βγ dimer formation; format: binding; details: cotranslated in vitro with β1 subunit
T2 construct: made in house; host or cells: cell-free in vitro transcription/translation
T2 sequence (P62873 whole entry): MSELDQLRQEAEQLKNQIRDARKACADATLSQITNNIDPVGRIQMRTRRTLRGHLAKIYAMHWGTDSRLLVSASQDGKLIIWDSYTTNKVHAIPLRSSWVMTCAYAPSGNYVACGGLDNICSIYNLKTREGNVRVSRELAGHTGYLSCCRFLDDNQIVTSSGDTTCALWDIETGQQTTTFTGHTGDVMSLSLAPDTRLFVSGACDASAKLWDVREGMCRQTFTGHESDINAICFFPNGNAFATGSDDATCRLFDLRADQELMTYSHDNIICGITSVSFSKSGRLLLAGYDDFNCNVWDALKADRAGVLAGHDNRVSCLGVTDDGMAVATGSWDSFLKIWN
T2 sequence (Q9P2W3 whole entry partner): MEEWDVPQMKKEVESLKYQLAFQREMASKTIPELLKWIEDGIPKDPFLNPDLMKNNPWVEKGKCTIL
Protocol: To determine which β and gustducin γ subunit combinations were capable of forming dimers another trypsin assay was utilized. β monomers are cleaved at numerous sites by trypsin, whereas βγ dimers are cleaved at a single site, resulting in the appearance of a 26-kDa fragment of the β subunit. See Schmidt et al., J. Biol. Chem., 267: 13807–13810 (1992).
Plasmid DNAs (0.5 μg) encoding β1 subunit was transcribed and translated in vitro, in the presence or absence of plasmid DNA (0.5 μg) coding for the gustducin γ subunit. Aliquots (10 μl) of the cotranslated βγ mix or β subunit alone were digested by TPCK-treated trypsin (1 μg) in a final volume of 20 μl (with 50 mM Na-HEPES pH 8.0). After incubation for 1 hour at 30° C., the digestions were stopped by addition of 6 μg SBTI as described above. Protected fragments of β subunits were analyzed on 15% SDS-PAGE. Detection was as described above.
In the assay, β1 formed dimers with gustducin γ subunit that were protected from trypsin digestion.

Molecule	protection of gustducin α subunit from tryptic digestion (gustducin α subunit)	dimer formation with β1, protected from trypsin digestion (β1 subunit)
B1	unable to protect	–
B2	protected gustducin α subunit from tryptic digestion to a significant extent	formed dimers
B3	unable to protect	–
B4	appeared to interact with gustducin α subunit, albeit to a lesser extent	–
